Measured values published in ChEMBL document CHEMBL3526031, “Mechanistic studies on the absorption and disposition of scutellarin in humans: selective OATP2B1-mediated hepatic uptake is a likely key determinant for its unique pharmacokinetic characteristics” (Drug Metab Dispos, 2012).

Key:
Homo sapiens = test: Drug level in human assessed as retention time treated with 40 mg, po of scutellarin measured up to 20 hrs by mass defect filter chromatogram analysis; format: ADME, organism-based
[1] = substrate: O=c1cc(-c2ccc(O)cc2)oc2cc(O)c(O)c(O)c12; test: Drug metabolism assessed as human recombinant UGT1A9-mediated formation of scutellarein-7-O-glucuronide after 25 mins by HPLC/UV analysis; format: ADME
[2] = substrate: O=c1cc(-c2ccc(O)cc2)oc2cc(O)c(O)c(O)c12; test: Drug metabolism assessed as human recombinant UGT1A9-mediated formation of scutellarein-6-O-glucuronide after 25 mins by HPLC/UV analysis; format: ADME
[3] = substrate: O=c1cc(-c2ccc(O)cc2)oc2cc(O)c(O)c(O)c12; test: Drug metabolism assessed as human recombinant UGT2B7-mediated formation of scutellarein-6-O-glucuronide after 25 mins by HPLC/UV analysis; format: ADME
[4] = substrate: O=c1cc(-c2ccc(O)cc2)oc2cc(O)c(O)c(O)c12; test: Drug metabolism assessed as human recombinant UGT1A7-mediated formation of scutellarein-7-O-glucuronide after 25 mins by HPLC/UV analysis; format: ADME
[5] = substrate: O=c1cc(-c2ccc(O)cc2)oc2cc(O)c(O)c(O)c12; test: Drug metabolism assessed as human recombinant UGT1A6-mediated formation of scutellarein-7-O-glucuronide after 25 mins by HPLC/UV analysis; format: ADME
[6] = substrate: O=c1cc(-c2ccc(O)cc2)oc2cc(O)c(O)c(O)c12; test: Drug metabolism assessed as human recombinant UGT1A8-mediated formation of scutellarein-7-O-glucuronide after 25 mins by HPLC/UV analysis; format: ADME
[7] = substrate: O=c1cc(-c2ccc(O)cc2)oc2cc(O)c(O)c(O)c12; test: Drug metabolism assessed as human recombinant UGT1A3-mediated formation of scutellarein-7-O-glucuronide after 25 mins by HPLC/UV analysis; format: ADME
[8] = substrate: O=c1cc(-c2ccc(O)cc2)oc2cc(O)c(O)c(O)c12; test: Drug metabolism assessed as human recombinant UGT1A10-mediated formation of scutellarein-6-O-glucuronide after 25 mins by HPLC/UV analysis; format: ADME
[9] = substrate: O=c1cc(-c2ccc(O)cc2)oc2cc(O)c(O)c(O)c12; test: Drug metabolism assessed as human recombinant UGT1A10-mediated formation of scutellarein-7-O-glucuronide after 25 mins by HPLC/UV analysis; format: ADME

With `O=C(O)[C@H]1O[C@@H](Oc2cc3oc(-c4ccc(O)cc4)cc(=O)c3c(O)c2O[C@@H]2O[C@H](C(=O)O)[C@@H](O)[C@H](O)[C@H]2O)[C@H](O)[C@@H](O)[C@@H]1O` the Retention_time (Homo sapiens) was 6.02 min.

B1: UDP-glucuronosyltransferase 1A9 (Homo sapiens) (protein)
chain: MACTGWTSPLPLCVCLLLTCGFAEAGKLLVVPMDGSHWFTMRSVVEKLILRGHEVVVVMPEVSWQLGRSLNCTVKTYSTSYTLEDLDREFKAFAHAQWKAQVRSIYSLLMGSYNDIFDLFFSNCRSLFKDKKLVEYLKESSFDAVFLDPFDNCGLIVAKYFSLPSVVFARGILCHYLEEGAQCPAPLSYVPRILLGFSDAMTFKERVRNHIMHLEEHLLCHRFFKNALEIASEILQTPVTEYDLYSHTSIWLLRTDFVLDYPKPVMPNMIFIGGINCHQGKPLPMEFEAYINASGEHGIVVFSLGSMVSEIPEKKAMAIADALGKIPQTVLWRYTGTRPSNLANNTILVKWLPQNDLLGHPMTRAFITHAGSHGVYESICNGVPMVMMPLFGDQMDNAKRMETKGAGVTLNVLEMTSEDLENALKAVINDKSYKENIMRLSSLHKDRPVEPLDLAVFWVEFVMRHKGAPHLRPAAHDLTWYQYHSLDVIGFLLAVVLTVAFITFKCCAYGYRKCLGKKGRVKKAHKSKTH
B1 gave a Km [1] of 5.49 µM, a Vmax [1] of 0.00463 µmol/min/mg and a Vmax/Km [1] of 843 µL/min/mg. It also gave a Km [2] of 10.9 µM, a Vmax [2] of 0.00167 µmol/min/mg and a Vmax/Km [2] of 153 µL/min/mg.

B2: UDP-glucuronosyltransferase 2B7 (Homo sapiens) (protein)
chain: MSVKWTSVILLIQLSFCFSSGNCGKVLVWAAEYSHWMNIKTILDELIQRGHEVTVLASSASILFDPNNSSALKIEIYPTSLTKTELENFIMQQIKRWSDLPKDTFWLYFSQVQEIMSIFGDITRKFCKDVVSNKKFMKKVQESRFDVIFADAIFPCSELLAELFNIPFVYSLSFSPGYTFEKHSGGFIFPPSYVPVVMSELTDQMTFMERVKNMIYVLYFDFWFEIFDMKKWDQFYSEVLGRPTTLSETMGKADVWLIRNSWNFQFPYPLLPNVDFVGGLHCKPAKPLPKEMEDFVQSSGENGVVVFSLGSMVSNMTEERANVIASALAQIPQKVLWRFDGNKPDTLGLNTRLYKWIPQNDLLGHPKTRAFITHGGANGIYEAIYHGIPMVGIPLFADQPDNIAHMKARGAAVRVDFNTMSSTDLLNALKRVINDPSYKENVMKLSRIQHDQPVKPLDRAVFWIEFVMRHKGAKHLRVAAHDLTWFQYHSLDVIGFLLVCVATVIFIVTKCCLFCFWKFARKAKKGKND
B2 was tested, and the Km [3] was 11.5 µM, the Vmax [3] was 8.9e-05 µmol/min/mg and the Vmax/Km [3] was 7.74 µL/min/mg.

B3: UDP-glucuronosyltransferase 1A7 (Homo sapiens) (protein)
chain: MARAGWTGLLPLYVCLLLTCGFAKAGKLLVVPMDGSHWFTMQSVVEKLILRGHEVVVVMPEVSWQLGRSLNCTVKTYSTSYTLEDQDREFMVFADARWTAPLRSAFSLLTSSSNGIFDLFFSNCRSLFNDRKLVEYLKESCFDAVFLDPFDACGLIVAKYFSLPSVVFARGIFCHYLEEGAQCPAPLSYVPRLLLGFSDAMTFKERVWNHIMHLEEHLFCPYFFKNVLEIASEILQTPVTAYDLYSHTSIWLLRTDFVLEYPKPVMPNMIFIGGINCHQGKPVPMEFEAYINASGEHGIVVFSLGSMVSEIPEKKAMAIADALGKIPQTVLWRYTGTRPSNLANNTILVKWLPQNDLLGHPMTRAFITHAGSHGVYESICNGVPMVMMPLFGDQMDNAKRMETKGAGVTLNVLEMTSEDLENALKAVINDKSYKENIMRLSSLHKDRPVEPLDLAVFWVEFVMRHKGAPHLRPAAHDLTWYQYHSLDVIGFLLAVVLTVAFITFKCCAYGYRKCLGKKGRVKKAHKSKTH
B3 showed a Km [4] of 33.3 µM, a Vmax [4] of 0.000795 µmol/min/mg and a Vmax/Km [4] of 23.9 µL/min/mg.

B4: UDP-glucuronosyltransferase 1A6 (Homo sapiens) (protein)
chain: MACLLRSFQRISAGVFFLALWGMVVGDKLLVVPQDGSHWLSMKDIVEVLSDRGHEIVVVVPEVNLLLKESKYYTRKIYPVPYDQEELKNRYQSFGNNHFAERSFLTAPQTEYRNNMIVIGLYFINCQSLLQDRDTLNFFKESKFDALFTDPALPCGVILAEYLGLPSVYLFRGFPCSLEHTFSRSPDPVSYIPRCYTKFSDHMTFSQRVANFLVNLLEPYLFYCLFSKYEELASAVLKRDVDIITLYQKVSVWLLRYDFVLEYPRPVMPNMVFIGGINCKKRKDLSQEFEAYINASGEHGIVVFSLGSMVSEIPEKKAMAIADALGKIPQTVLWRYTGTRPSNLANNTILVKWLPQNDLLGHPMTRAFITHAGSHGVYESICNGVPMVMMPLFGDQMDNAKRMETKGAGVTLNVLEMTSEDLENALKAVINDKSYKENIMRLSSLHKDRPVEPLDLAVFWVEFVMRHKGAPHLRPAAHDLTWYQYHSLDVIGFLLAVVLTVAFITFKCCAYGYRKCLGKKGRVKKAHKSKTH
Molecule B4 has a Km [5] of 27 µM, a Vmax [5] of 0.00167 µmol/min/mg and a Vmax/Km [5] of 62 µL/min/mg.

B5: UDP-glucuronosyltransferase 1A8 (Homo sapiens) (protein)
chain: MARTGWTSPIPLCVSLLLTCGFAEAGKLLVVPMDGSHWFTMQSVVEKLILRGHEVVVVMPEVSWQLGKSLNCTVKTYSTSYTLEDLDREFMDFADAQWKAQVRSLFSLFLSSSNGFFNLFFSHCRSLFNDRKLVEYLKESSFDAVFLDPFDACGLIVAKYFSLPSVVFARGIACHYLEEGAQCPAPLSYVPRILLGFSDAMTFKERVRNHIMHLEEHLFCQYFSKNALEIASEILQTPVTAYDLYSHTSIWLLRTDFVLDYPKPVMPNMIFIGGINCHQGKPLPMEFEAYINASGEHGIVVFSLGSMVSEIPEKKAMAIADALGKIPQTVLWRYTGTRPSNLANNTILVKWLPQNDLLGHPMTRAFITHAGSHGVYESICNGVPMVMMPLFGDQMDNAKRMETKGAGVTLNVLEMTSEDLENALKAVINDKSYKENIMRLSSLHKDRPVEPLDLAVFWVEFVMRHKGAPHLRPAAHDLTWYQYHSLDVIGFLLAVVLTVAFITFKCCAYGYRKCLGKKGRVKKAHKSKTH
With B5 the Km [6] was 19 µM, the Vmax [6] was 0.000673 µmol/min/mg and the Vmax/Km [6] was 35.4 µL/min/mg.

B6: UDP-glucuronosyltransferase 1A3 (Homo sapiens) (protein)
chain: MATGLQVPLPWLATGLLLLLSVQPWAESGKVLVVPIDGSHWLSMREVLRELHARGHQAVVLTPEVNMHIKEENFFTLTTYAISWTQDEFDRHVLGHTQLYFETEHFLKKFFRSMAMLNNMSLVYHRSCVELLHNEALIRHLNATSFDVVLTDPVNLCAAVLAKYLSIPTVFFLRNIPCDLDFKGTQCPNPSSYIPRLLTTNSDHMTFMQRVKNMLYPLALSYICHAFSAPYASLASELFQREVSVVDILSHASVWLFRGDFVMDYPRPIMPNMVFIGGINCANRKPLSQEFEAYINASGEHGIVVFSLGSMVSEIPEKKAMAIADALGKIPQTVLWRYTGTRPSNLANNTILVKWLPQNDLLGHPMTRAFITHAGSHGVYESICNGVPMVMMPLFGDQMDNAKRMETKGAGVTLNVLEMTSEDLENALKAVINDKSYKENIMRLSSLHKDRPVEPLDLAVFWVEFVMRHKGAPHLRPAAHDLTWYQYHSLDVIGFLLAVVLTVAFITFKCCAYGYRKCLGKKGRVKKAHKSKTH
With B6 the Km [7] was 7.34 µM, the Vmax [7] was 0.00178 µmol/min/mg and the Vmax/Km [7] was 243 µL/min/mg.

B7: UDP-glucuronosyltransferase 1A10 (Homo sapiens) (protein)
chain: MARAGWTSPVPLCVCLLLTCGFAEAGKLLVVPMDGSHWFTMQSVVEKLILRGHEVVVVMPEVSWQLERSLNCTVKTYSTSYTLEDQNREFMVFAHAQWKAQAQSIFSLLMSSSSGFLDLFFSHCRSLFNDRKLVEYLKESSFDAVFLDPFDTCGLIVAKYFSLPSVVFTRGIFCHHLEEGAQCPAPLSYVPNDLLGFSDAMTFKERVWNHIVHLEDHLFCQYLFRNALEIASEILQTPVTAYDLYSHTSIWLLRTDFVLDYPKPVMPNMIFIGGINCHQGKPLPMEFEAYINASGEHGIVVFSLGSMVSEIPEKKAMAIADALGKIPQTVLWRYTGTRPSNLANNTILVKWLPQNDLLGHPMTRAFITHAGSHGVYESICNGVPMVMMPLFGDQMDNAKRMETKGAGVTLNVLEMTSEDLENALKAVINDKSYKENIMRLSSLHKDRPVEPLDLAVFWVEFVMRHKGAPHLRPAAHDLTWYQYHSLDVIGFLLAVVLTVAFITFKCCAYGYRKCLGKKGRVKKAHKSKTH
B7 was tested, and the Km [8] was 2.74 µM, the Vmax [8] was 3.8e-05 µmol/min/mg and the Vmax/Km [8] was 13.7 µL/min/mg. For the same molecule, the Km [9] was 5.68 µM, the Vmax [9] was 0.000318 µmol/min/mg and the Vmax/Km [9] was 55.9 µL/min/mg.
